Assay results: US20190062438A1 (CSL, published 2019)

Columns and labels:
Assay in all cases: SPR, kinetics, Fab over captured mutant
shCD131 V108A = target: T1, shCD131 V108A (human, UniProt P32927 17-438)
T1 construct: C-terminal 6xHis
T1 sequence: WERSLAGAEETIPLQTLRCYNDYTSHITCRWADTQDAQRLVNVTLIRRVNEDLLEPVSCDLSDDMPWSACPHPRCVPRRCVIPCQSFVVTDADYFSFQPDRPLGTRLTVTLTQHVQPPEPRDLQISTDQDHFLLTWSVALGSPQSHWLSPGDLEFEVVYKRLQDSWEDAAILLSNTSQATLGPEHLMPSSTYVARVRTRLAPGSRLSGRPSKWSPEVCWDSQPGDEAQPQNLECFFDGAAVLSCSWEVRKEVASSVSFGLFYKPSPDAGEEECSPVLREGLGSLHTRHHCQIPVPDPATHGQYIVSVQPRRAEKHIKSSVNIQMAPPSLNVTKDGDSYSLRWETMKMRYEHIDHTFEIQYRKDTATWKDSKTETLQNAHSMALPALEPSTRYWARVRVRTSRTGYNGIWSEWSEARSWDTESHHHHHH
Experimental: (§1) As shβc is a dimer, kinetics assays were performed with shβc captured on the sensor surface, and purified Fab injected as the analyte. Avidity effects were avoided by the use of Fab rather than whole IgG.
(§2) shCD131 was captured on spots 1 and 5 of each flow cell for 2 minutes at a concentration of 0.4 μg/ml. […] For some analysis purified Fab was injected over each flow cell for 3 minutes and dissociation was monitored for a further 10 minutes. Regeneration of the surface was performed after each cycle with a 40 second injection of 25 mM glycine, pH 2.0. The analysis was performed with Fabs at several concentrations between 100 and 0.31 nM, with each concentration analyzed twice and in random order. The analysis was performed at a flow rate of 30 μl/min in HBS-EP buffer (10 mM Hepes, 150 mM NaCl, 3 mM EDTA, 0.005% Tween 20, pH 7.4) at 37° C. Responses from spots 2 and 4 of each flow cell, (in which shβc was not captured, but otherwise treated identically), were subtracted from those of spots 1 and 5 respectively to produce reference subtracted data. Reference subtracted responses from a blank injection comprising buffer alone were subtracted from the resultant sensorgrams to produce double referenced data suitable for kinetic analysis. Double-referenced sensorgrams were fitted using non-linear regression to a model describing 1:1 kinetics, including a term for mass transport limitation. The Rₘₐₓ value was fitted locally to account for slight deviations in the level of sCD131 captured, with association rate (kₐ), dissociation rate (kd) and equilibrium dissociation constant (KD) fitted globally.
(§3) Mapping of the shCD131 epitope was performed by measurement of the affinity of Fabs for various alanine point mutants of shCD131 essentially as described above, with the following exceptions. Each shCD131 mutant was captured for 120 seconds at concentrations between 1 and 5 μg/ml. For kinetic analysis, purified recombinant Fabs were injected for 2 minutes, and dissociation was monitored for a further 2 minutes. […] Fab concentrations ranged from 16 μM to 3.9 nM in two-fold dilutions.

shCD131 M363A = target: T2, shCD131 M363A (human, UniProt P32927 17-438)
T2 construct: C-terminal 6xHis
T2 sequence: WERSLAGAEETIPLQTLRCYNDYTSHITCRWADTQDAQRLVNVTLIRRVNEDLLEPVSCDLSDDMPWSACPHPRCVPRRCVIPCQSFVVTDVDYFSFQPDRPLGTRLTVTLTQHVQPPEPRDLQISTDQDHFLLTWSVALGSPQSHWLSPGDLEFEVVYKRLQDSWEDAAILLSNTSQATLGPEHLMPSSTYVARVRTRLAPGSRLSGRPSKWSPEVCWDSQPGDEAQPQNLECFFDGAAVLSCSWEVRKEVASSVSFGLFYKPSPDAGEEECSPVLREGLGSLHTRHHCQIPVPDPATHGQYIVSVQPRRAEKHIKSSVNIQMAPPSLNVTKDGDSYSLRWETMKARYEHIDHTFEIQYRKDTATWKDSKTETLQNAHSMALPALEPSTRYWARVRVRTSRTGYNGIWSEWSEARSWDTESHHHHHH
Experimental: as §1, §2, §3

shCD131 N422A = target: T3, shCD131 N422A (human, UniProt P32927 17-438)
T3 construct: C-terminal 6xHis
T3 sequence: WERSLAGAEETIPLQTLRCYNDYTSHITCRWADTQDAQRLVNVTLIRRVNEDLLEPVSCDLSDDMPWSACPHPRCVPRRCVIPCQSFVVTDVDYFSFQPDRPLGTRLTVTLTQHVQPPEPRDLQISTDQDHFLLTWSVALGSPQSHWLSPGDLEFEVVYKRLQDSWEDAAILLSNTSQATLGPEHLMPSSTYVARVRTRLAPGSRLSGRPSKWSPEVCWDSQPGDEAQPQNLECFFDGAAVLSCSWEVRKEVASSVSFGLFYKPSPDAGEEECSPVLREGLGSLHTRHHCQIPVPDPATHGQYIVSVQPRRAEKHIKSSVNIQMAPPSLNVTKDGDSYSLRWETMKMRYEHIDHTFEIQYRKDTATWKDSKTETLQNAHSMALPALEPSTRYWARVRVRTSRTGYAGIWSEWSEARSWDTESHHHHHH
Experimental: as §1, §2, §3

shCD131 I424A = target: T4, shCD131 I424A (human, UniProt P32927 17-438)
T4 construct: C-terminal 6xHis; also called 1424A
T4 sequence: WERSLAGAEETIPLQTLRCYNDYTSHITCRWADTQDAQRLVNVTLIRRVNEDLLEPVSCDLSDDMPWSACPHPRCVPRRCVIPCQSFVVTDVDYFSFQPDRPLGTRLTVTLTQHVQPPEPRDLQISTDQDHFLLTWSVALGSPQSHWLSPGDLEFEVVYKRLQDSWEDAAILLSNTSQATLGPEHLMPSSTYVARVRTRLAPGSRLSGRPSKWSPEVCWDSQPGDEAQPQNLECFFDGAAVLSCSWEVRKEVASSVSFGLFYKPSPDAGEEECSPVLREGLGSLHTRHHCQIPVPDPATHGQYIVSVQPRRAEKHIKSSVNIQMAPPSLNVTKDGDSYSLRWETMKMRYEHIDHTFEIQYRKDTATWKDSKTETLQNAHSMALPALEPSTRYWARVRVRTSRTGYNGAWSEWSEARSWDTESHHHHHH
Experimental: as §1, §2, §3

- Kd (shCD131 V108A): 83 nM
- Kd (shCD131 M363A): 171 nM
- Kd (shCD131 N422A): 54 nM
- Kd (shCD131 I424A): 126 nM
B1: 9A2 Fab (Fab, V domains shown)
VH: EVQLLESGGGLVQPGGSLRLSCAASGFTFSHYHMLWVRQAPGKGLEWVSSIRSSGGFTYYADSVKGRFTISRDNSKNTLYLQMNSLRAEDTAVYYCARFYDSFFDIWGQGTMVTVSS
VL: DIQMTQSPSSVSASVGDRVTITCRASQGISSWLAWYQQKPGKAPKLLIYAASSLQSGVPSRFSGSGSGTDFTLTISSLQPEDFATYYCQQANSFPITFGQGTRLEIKR
notes: also called recombinant Fab of 9A2
